TCA-soluble 125I (cpm) from [125I]-lysozyme degradation in rabbit reticulocyte lysate data for one substance are collected here from US20020173049A1.

Non-standard residues stand in square brackets, D forms with d. No end group written: not given here. Ahx = NCCCCCC(=O)O

The assay addresses E3α (rabbit). In words: cell-based or functional assay.

Substance Phe-[Ahx]-Cys displayed a TCA-soluble 125I (cpm) from [125I]-lysozyme degradation in rabbit reticulocyte lysate at the 2 hour time point; no treatment 12,475 cpm of 3590 cpm.
